According to publication PMC6338552 (Biochemistry, 2018):
Like-named read-outs stand apart in the source and are kept apart here. TMR = 6-carboxytetramethylrhodamine

B1: His6-JNK1α1 (enzyme, UniProt P45983-2 1-384, looked up)
chain: MSRSKRDNNFYSVEIGDSTFTVLKRYQNLKPIGSGAQGIVCAAYDAILERNVAIKKLSRPFQNQTHAKRAYRELVLMKCVNHKNIIGLLNVFTPQKSLEEFQDVYIVMELMDANLCQVIQMELDHERMSYLLYQMLCGIKHLHSAGIIHRDLKPSNIVVKSDCTLKILDFGLARTAGTSFMMTPYVVTRYYRAPEVILGMGYKENVDLWSVGCIMGEMVCHKILFPGRDYIDQWNKVIEQLGTPCPEFMKKLQPTVRTYVENRPKYAGYSFEKLFPDVLFPADSEHNKLKASQARDLLSKMLVIDASKRISVDEALQHPYINVWYDPSEAEAPPPKIPDKQLDEREHTIEEWKELIYKEVMDLEERTKNGVIRGQPSPLAQVQQ
B2: TMR-JIPtide (peptide)
peptide: {TMR}-RPKRPTTLNLF-OH

Columns and labels:
Assay in all cases: fluorescence polarisation
[1] = molecular target: B2
[2] = molecular target: T1, His6-JNK2α1 (UniProt P45984-2 1-382)
[3] = molecular target: T2, His6-JNK3α1 (UniProt P53779-2 1-422)
[4] = molecular target: B1
[5] = molecular target: T1, His6-JNK2α1; remark: listed apart in the source
[6] = molecular target: T2, His6-JNK3α1; remark: listed apart in the source
[7] = molecular target: B1; remark: listed apart in the source
[8] = molecular target: T1, His6-JNK2α1; remark: listed apart in the source
[9] = molecular target: T2, His6-JNK3α1; remark: listed apart in the source
[10] = molecular target: B1; remark: listed apart in the source
[11] = molecular target: T1, His6-JNK2α1; remark: listed apart in the source
[12] = molecular target: T2, His6-JNK3α1; remark: listed apart in the source
[13] = molecular target: B1; remark: listed apart in the source
[14] = molecular target: T1, His6-JNK2α1; remark: listed apart in the source
[15] = molecular target: T2, His6-JNK3α1; remark: listed apart in the source
[16] = molecular target: B1; remark: listed apart in the source
[17] = molecular target: T1, His6-JNK2α1; remark: listed apart in the source
[18] = molecular target: T2, His6-JNK3α1; remark: listed apart in the source
[19] = molecular target: B1; remark: listed apart in the source
[20] = molecular target: T2, His6-JNK3α1; remark: listed apart in the source
[21] = molecular target: T1, His6-JNK2α1; remark: listed apart in the source
[22] = molecular target: T2, His6-JNK3α1; remark: listed apart in the source
[23] = molecular target: B1; remark: listed apart in the source

B1
fold tighter binding than apo-JNK1 [1]: 2 fold

B2
Kd [2]: 17000 nM
Kd [3]: 12000 nM
Kd [4]: 14000 nM
Kd [5]: 15000 nM
Kd [6]: 4600 nM
Kd [7]: 3200 nM
Kd [8]: 3000 nM
Kd [9]: 640 nM
Kd [10]: 250 nM
Kd [11]: 6000 nM
Kd [12]: 2800 nM
Kd [13]: 1500 nM
Kd [14]: 37000 nM
Kd [15]: 1700 nM
Kd [16]: 680 nM
Kd [17]: 4600 nM
Kd [18]: 480 nM
Kd [19]: 230 nM
Kd [20]: 1900 nM
Kd [21]: 5100 nM
Kd [22]: 1500 nM
Kd [23]: 440 nM
